{"source": "patent US11098288B2", "about": "“D-type amino acid dehydrogenase” (Kureha Corporation, priority 2017, dated 2021)", "molecules": {"B1": {"name": "D-type amino acid dehydrogenase: D-type amino acid dehydrogenase derived from Thermosyntropha lipolytica, amino acid sequence SEQ ID NO: 2, hexamer (protein, listed as Thermosyntropha lipolytica)", "chain": "MGEKIRVAIVGYGNIGRYALDAIKAAPDMELAGVVRRSSSLGDKPAELADVPVVGSIKELTGVKVALLCTPTRSVPEYAREILALGINTVDSYDIHGQLADLRLELDKVAKEHNAVAVISAGWDPGTDSMVRCMFEFMAPKGITYTNFGPGMSMGHSVAVKAVKGVKNALSMTIPLGTGVHRRMVYVELEPGADFAQVEKAVKTDPYFVKDETHVIQVEDVDALIDMGHGVLMERKGVSGGTHNQLLSFSMRINNPALTAQIMVASARASVKQKPGAYTMIQIPIIDYMYGDPDEIIRQLV", "modifications": "hexamer"}}, "key": {"[1]": {"experiment": "Optimum pH in catalytic reaction (deamination of meso-diaminopimelic acid)", "format": "biochemical, Thermosyntropha lipolytica", "details": "NADP^+, 50° C.", "procedure": "The optimum pH was evaluated for the D-type amino acid dehydrogenase obtained in Example 2. The activity of the enzyme was measured by determining an increase in absorbance at wavelength of 340 nm of NADPH produced by the enzymatic catalytic reaction.\nThe absorbance was measured by an ultraviolet-visible spectrophotometer UV-1800 (available from SHIMADZU). The specific activity of the enzyme was calculated from the concentration of the enzyme used and enzyme dilution rate using the obtained absorbance change and the following equation."}, "[2]": {"experiment": "Optimum temperature in catalytic reaction", "format": "biochemical, Thermosyntropha lipolytica", "details": "meso-diaminopimelic acid as substrate, NADP^+", "description": "The measurement results are illustrated in FIG. 6."}, "[3]": {"experiment": "Thermal stability of the enzyme (residual activity after heat treatment)", "format": "physicochemical, Thermosyntropha lipolytica", "details": "70° C., 30 minutes, 10 mM phosphate buffer pH 7.2; activity at 50° C. as 100%", "procedure": "The D-type amino acid dehydrogenase purified in Example 2 was heat-treated for 30 minutes under various temperature conditions (50, 55, 60, 65, or 70° C.) in 10 mM phosphate buffer solution (pH 7.2), and the residual activity after standing for 5 minutes in ice was confirmed. […] The residual activity after treatment at other temperatures was calculated as a relative activity, with the activity at 50° C. as 100%."}, "[4]": {"experiment": "pH stability of the enzyme (residual activity after treatment in buffers)", "format": "physicochemical, Thermosyntropha lipolytica", "details": "pH 5.0 to 9.5, 50° C. for 30 minutes, 100 mM buffer; activity at pH 9.0 as 100%", "procedure": "The D-type amino acid dehydrogenase purified in Example 2 was heat-treated at 50° C. for 30 minutes in each 100 mM buffer solution (pH 1.5, 2.0, 2.5, 3.0, 3.5, 4.0, 4.5, 5.0, 5.5, 6.0, 6.5, 7.0, 7.5, 8.0, 8.5, 9.0, 9.5, 10.0, 10.5, 11.0, or 11.3), and the residual activity after standing for 5 minutes in ice was confirmed. […] The activity in the treatment at pH 9.0 was defined as 100%, and the residual activity after the treatment at other pH was calculated as the relative activity."}, "[5]": {"experiment": "Activity-staining with D-alanine or L-alanine as substrate", "format": "biochemical, Thermosyntropha lipolytica", "details": "10 mM D-alanine or L-alanine, 1.25 mM NADP^+, pH 8.0, 50° C., 30 minutes", "procedure": "The activity was evaluated for the D-type amino acid dehydrogenase obtained in Example 2 above. The activity of the enzyme was evaluated by an activity-staining method due to a catalytic reaction of the enzyme. More specifically, an appropriate amount of enzyme solution was subjected to disc gel electrophoresis. […] The 2-(4-iodophenyl)-3-(4-nitrophenyl)-5-phenyl-2H-tetrazolium chloride in the reaction solution is reduced to form a […] formazan. A reaction formula is indicated below. In the following reaction formula, the D-type amino acid dehydrogenase is referred to as “meso-DAPDH”."}}, "data": [{"molecule": "B1", "values": [{"measurement": "optimum pH for activity", "setting": "[1]", "result": 10.5}, {"measurement": "optimum temperature for activity", "setting": "[2]", "result": "about 55 °C"}, {"measurement": "residual activity after heat treatment", "setting": "[3]", "result": "about 74%"}, {"measurement": "residual activity after pH treatment", "setting": "[4]", "result": "≥ 90", "unit": "%"}, {"measurement": "stereoselectivity for substrate (activity-staining)", "setting": "[5]", "result": "selectively acts on the D-amino acid"}]}]}
